# In patent US11248243B2, “Process for the biological production of methacrylic acid and derivatives thereof” (MITSUBISHI CHEMICAL UK LIMITED, priority 2015, dated 2022):
# B1: 4-hydroxybenzoyl-CoA thioesterase (4HBT) (Arthrobacter sp.) (protein)
# chain: MHRTSNGSHATGGNLPDVASHYPVAYEQTLDGTVGFVIDEMTPERATASVEVTDTLRQRWGLVHGGAYCALAEMLATEATVAVVHEKGMMAVGQSNHTSFFRPVKEGHVRAEAVRIHAGSTTWFWDVSLRDDAGRLCAVSSMSIAVRPRRDGLEHHHHHH
# notes: made in house; host or cells: E. coli BL21 (DE3) pLysS pET20b(+)::CtHis-4HBT
# Columns and labels:
# [1] = substrate: C=C(C)C(=O)SCCNC(=O)CCNC(=O)[C@H](O)C(C)(C)COP(=O)(O)OP(=O)(O)OC[C@H]1O[C@@H](n2cnc3c(N)ncnc32)[C@H](O)[C@@H]1OP(=O)(O)O; assay: Kinetic characterisation of purified carboxy-terminal hexahistidine tagged 4HBT (thioester hydrolysis, DTNB); type: biochemical; conditions: other: substrate of purified CtHis-4HBT (0.075 mg/ml for methacrylyl-CoA, 1 mg/ml for isobutyryl-CoA), DTNB 0.5 mM, Lineweaver-Burke plot; 18.0 °C
# Description: (§1) Pure carboxy-terminal His-tagged 4HBT enzyme was then prepared by first growing cultures of E. coli BL21 (DE3) pLysS pET20b(+)::CtHis-4HBT and inducing expression in the exact same manner as was performed for E. coli BL21 (DE3) pLysS pET20b(+)::4HBT. […] Cells were harvested by splitting the cell culture into three centrifuge tubes and centrifuging at 5000 g for 20 min at 4° C. Cell pellets were not washed though, and were instead directly stored at −80° C. A cell free extract of carboxy-terminal hexahistidine tagged 4HBT was prepared by re-suspending one of the E. coli BL21 (DE3) pLysS pET20b(+)::CtHis-4HBT cell pellets in binding buffer (6 ml) for a Nickel-sepharose FPLC column. Binding buffer consisted of NaH2PO4 (10 mM), Na2HPO4 (10 mM), NaCl (500 mM), imidazole (30 mM) and was adjusted to pH 7.4 with HCl. Benzonase® nuclease (0.6 μl) was added to the re-suspended cells before they were lysed in the Constant Systems One Shot cell disrupter. The cell lysate was then clarified by centrifugation at 18,000 g for 15 min at 4° C., followed by centrifugation of the supernatant at 57,750 g for 60 min at 4° C. This supernatant was then loaded onto a GE Healthcare HisTrap™ FF Crude column (1 ml) that was equilibrated with binding buffer. […] Protein elution was monitored at 280 nm and fractions were checked for the presence and purity of carboxy-terminal His-tagged 4HBT by SDS-PAGE. […] The latter dilution in potassium phosphate assay buffer and re-concentration was performed once more and the concentration of CtHIS-4HBT protein was determined by UV280 absorbance in a NanoDrop ND1000 spectrophotometer, using a molar extinction coefficient of 20970M^−1·cm^−1 and a molecular weight of 17516.5 mg·mmol^−1 for the carboxy-terminal His-tagged 4HBT enzyme. The values for the molar extinction coefficient and molecular weight were determined using the Expasy ProtParam tool, using the amino acid translation of the gene sequence encoding the carboxy-terminal his tagged 4HBT enzyme (SEQ. ID 5) in the pET20b(+)::CtHis-4HBT plasmid. […]
# (§2) Methacrylyl-CoA hydrolysis reactions (200 μl) were performed in Nunc 96 well plates using purified CtHis-4HBT protein (0.075 mg·ml^−1) and DTNB (0.5 mM) to monitor the reaction. Initial rates were determined for methacrylyl-CoA starting concentrations of 0.375 mM, 0.3 mM, 0.225 mM, 0.15 mM and 0.075 mM. […]
# (§3) Isobutyryl-CoA hydrolysis reactions (200 μl) were also performed in Nunc 96 well plates, using purified CtHIS-4HBT protein (1 mg·ml^−1) and DTNB (0.5 mM) to monitor the reaction. Initial rates were determined for isobutyryl-CoA starting concentrations of 0.5 mM, 0.4 mM, 0.3 mM, 0.2 mM and 0.1 mM. […]
# [2] = substrate: CC(C)C(=O)SCCNC(=O)CCNC(=O)[C@H](O)C(C)(C)COP(=O)(O)OP(=O)(O)OC[C@H]1O[C@@H](n2cnc3c(N)ncnc32)[C@H](O)[C@@H]1OP(=O)(O)O; assay: as above; type: biochemical; conditions: other: substrate of purified CtHis-4HBT (0.075 mg/ml for methacrylyl-CoA, 1 mg/ml for isobutyryl-CoA), DTNB 0.5 mM, Lineweaver-Burke plot; 18.0 °C
# Description: as §1, §2, §3
protein,measurement,setting,value
B1,Km,[1],1600 µM
same,Vmax,[1],470 nmols·mg^−1·min^−1
same,Km,[2],3000 µM
same,Vmax,[2],16.7 nmols·mg^−1·min^−1
